Series [1] concerns the target taxol-stabilized microtubules. The series can be described thus: single-molecule TIRF binding density on microtubules.
Series [2] deals with Dyn^WB-M, monomeric S. cerevisiae dynein construct with a Walker B mutation in AAA3 (S. cerevisiae). Briefly: cryo-EM structure.
For series [3], the target named is Dyn^wt-M, monomeric S. cerevisiae cytoplasmic dynein construct lacking GST, wild type AAA3 (S. cerevisiae) (UniProt P36022). Briefly: cryo-EM structure.
Series [4] concerns the molecule itself. Briefly: cryo-EM structure.

From article PMC5625841 (Cell, 2017) come the findings set out here.

Sequence of Dyn^wt-M, monomeric S. cerevisiae cytoplasmic dynein construct lacking GST, wild type AAA3 (S. cerevisiae) (P36022 whole entry): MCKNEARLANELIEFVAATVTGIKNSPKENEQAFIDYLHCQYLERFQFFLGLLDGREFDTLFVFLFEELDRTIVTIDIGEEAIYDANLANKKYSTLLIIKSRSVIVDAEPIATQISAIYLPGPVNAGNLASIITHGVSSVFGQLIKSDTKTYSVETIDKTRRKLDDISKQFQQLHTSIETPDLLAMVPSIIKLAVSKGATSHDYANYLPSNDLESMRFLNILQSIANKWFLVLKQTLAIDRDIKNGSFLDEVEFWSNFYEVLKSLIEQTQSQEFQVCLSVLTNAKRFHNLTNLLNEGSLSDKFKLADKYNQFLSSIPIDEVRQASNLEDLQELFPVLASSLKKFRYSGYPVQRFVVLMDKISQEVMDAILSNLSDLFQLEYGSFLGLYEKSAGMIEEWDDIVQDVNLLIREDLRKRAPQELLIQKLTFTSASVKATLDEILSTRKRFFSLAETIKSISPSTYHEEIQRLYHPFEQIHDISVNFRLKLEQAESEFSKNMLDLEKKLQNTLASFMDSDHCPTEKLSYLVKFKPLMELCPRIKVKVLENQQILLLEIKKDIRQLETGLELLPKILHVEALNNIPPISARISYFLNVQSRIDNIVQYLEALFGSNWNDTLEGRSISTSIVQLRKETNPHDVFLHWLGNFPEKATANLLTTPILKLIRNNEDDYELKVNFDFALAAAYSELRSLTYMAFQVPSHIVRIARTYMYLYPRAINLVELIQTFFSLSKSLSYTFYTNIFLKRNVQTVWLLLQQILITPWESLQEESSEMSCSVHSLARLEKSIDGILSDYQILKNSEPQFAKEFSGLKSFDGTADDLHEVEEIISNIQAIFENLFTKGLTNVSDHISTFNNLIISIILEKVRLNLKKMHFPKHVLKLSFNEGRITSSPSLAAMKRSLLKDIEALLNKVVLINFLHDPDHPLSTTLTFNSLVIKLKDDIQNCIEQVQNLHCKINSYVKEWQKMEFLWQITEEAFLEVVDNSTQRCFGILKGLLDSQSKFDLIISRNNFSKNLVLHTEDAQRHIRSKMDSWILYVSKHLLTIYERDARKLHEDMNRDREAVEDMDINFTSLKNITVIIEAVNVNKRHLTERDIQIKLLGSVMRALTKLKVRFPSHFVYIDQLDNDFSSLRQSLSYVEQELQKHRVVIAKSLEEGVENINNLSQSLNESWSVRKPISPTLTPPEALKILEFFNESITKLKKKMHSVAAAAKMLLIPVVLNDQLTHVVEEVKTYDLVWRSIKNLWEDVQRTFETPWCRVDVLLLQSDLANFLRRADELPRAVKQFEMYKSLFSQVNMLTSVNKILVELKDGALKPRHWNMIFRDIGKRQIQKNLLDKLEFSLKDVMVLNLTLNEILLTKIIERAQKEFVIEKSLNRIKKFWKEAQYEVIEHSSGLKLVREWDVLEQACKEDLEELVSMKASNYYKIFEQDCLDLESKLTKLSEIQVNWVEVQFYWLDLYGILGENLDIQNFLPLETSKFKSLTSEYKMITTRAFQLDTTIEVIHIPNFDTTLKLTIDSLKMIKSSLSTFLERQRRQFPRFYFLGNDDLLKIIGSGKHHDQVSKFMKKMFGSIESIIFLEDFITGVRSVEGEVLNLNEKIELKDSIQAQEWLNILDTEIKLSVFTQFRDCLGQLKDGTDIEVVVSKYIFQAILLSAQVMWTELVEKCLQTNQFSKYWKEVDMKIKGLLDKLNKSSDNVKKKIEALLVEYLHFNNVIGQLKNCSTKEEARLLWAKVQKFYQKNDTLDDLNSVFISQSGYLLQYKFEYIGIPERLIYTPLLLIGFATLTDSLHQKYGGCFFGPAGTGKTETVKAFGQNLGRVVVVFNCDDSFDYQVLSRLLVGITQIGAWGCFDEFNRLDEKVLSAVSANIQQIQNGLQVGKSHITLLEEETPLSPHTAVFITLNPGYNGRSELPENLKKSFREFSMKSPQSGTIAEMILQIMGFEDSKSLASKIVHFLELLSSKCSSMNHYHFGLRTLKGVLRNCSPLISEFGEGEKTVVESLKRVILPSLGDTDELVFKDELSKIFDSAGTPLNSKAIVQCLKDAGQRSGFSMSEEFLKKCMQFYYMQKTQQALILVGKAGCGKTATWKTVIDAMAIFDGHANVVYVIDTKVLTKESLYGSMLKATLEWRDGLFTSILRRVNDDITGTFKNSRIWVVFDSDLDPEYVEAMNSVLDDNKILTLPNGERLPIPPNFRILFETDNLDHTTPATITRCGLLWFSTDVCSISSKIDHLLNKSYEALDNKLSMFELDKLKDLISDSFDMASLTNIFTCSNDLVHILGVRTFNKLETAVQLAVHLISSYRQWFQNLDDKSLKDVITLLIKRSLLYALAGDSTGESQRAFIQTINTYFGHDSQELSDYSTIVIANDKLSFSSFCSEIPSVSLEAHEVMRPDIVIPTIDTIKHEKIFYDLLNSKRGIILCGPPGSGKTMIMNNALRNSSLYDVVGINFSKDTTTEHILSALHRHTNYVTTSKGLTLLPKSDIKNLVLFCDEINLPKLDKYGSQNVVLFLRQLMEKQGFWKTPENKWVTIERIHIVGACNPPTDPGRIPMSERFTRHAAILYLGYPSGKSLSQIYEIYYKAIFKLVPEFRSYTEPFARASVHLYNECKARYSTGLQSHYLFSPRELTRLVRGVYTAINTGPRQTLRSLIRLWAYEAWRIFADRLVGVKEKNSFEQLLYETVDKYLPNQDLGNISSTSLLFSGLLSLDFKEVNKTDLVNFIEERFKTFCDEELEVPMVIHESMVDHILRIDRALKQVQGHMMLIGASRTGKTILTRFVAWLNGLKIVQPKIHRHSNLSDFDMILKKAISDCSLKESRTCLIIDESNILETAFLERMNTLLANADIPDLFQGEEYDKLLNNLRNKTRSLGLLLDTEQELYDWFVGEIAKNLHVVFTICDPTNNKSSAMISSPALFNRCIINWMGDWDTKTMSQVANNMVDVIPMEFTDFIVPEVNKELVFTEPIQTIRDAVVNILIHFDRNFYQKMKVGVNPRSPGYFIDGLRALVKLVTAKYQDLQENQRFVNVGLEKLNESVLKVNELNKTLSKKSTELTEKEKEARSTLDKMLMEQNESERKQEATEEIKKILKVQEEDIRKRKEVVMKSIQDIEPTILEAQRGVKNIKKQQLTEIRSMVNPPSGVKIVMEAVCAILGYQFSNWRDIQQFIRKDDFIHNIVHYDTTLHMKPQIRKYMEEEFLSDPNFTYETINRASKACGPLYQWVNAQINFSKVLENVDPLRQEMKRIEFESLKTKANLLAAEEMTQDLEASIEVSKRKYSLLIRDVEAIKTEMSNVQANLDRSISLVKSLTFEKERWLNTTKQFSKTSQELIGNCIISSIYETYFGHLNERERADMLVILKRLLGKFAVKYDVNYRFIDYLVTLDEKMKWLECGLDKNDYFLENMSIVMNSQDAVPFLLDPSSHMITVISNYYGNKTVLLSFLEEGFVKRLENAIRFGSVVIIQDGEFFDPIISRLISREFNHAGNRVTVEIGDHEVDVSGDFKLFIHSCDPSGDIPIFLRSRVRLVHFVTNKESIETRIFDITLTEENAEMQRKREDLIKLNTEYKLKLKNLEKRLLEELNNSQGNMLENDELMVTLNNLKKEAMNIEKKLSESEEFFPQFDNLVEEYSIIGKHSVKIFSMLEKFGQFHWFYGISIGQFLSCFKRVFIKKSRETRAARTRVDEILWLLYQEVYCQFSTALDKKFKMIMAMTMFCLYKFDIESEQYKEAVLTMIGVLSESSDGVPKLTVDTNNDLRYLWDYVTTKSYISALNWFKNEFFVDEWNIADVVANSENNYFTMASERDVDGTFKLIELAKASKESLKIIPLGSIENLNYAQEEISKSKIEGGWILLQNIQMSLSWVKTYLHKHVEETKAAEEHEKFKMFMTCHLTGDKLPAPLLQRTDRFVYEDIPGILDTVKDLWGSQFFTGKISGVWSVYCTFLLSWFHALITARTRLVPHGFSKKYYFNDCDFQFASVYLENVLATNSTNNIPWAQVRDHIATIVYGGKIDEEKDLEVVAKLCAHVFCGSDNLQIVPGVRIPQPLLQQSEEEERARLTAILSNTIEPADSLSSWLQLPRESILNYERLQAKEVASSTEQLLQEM

In turn, “Dyn^WA, GST-dimerized S. cerevisiae dynein construct with a Walker A mutation in AAA3 (domain or fragment)” gave an increase of binding density on MTs with 300 nM Lis1 against no Lis1 in series [1] of 62%. In turn, “Dyn^WB, GST-dimerized S. cerevisiae dynein construct with a Walker B mutation in AAA3 (domain or fragment)” gave a decrease of binding density on MTs with 300 nM Lis1 against no Lis1 in series [1] of 42%.

B1: Lis1 (S. cerevisiae), dimer (natural protein, UniProt P39946 1-494, looked up)
chain: MTNWQQQLPLTDTQKNELDKSVLRYLNWNYKQTVRHEHAQDYESVRHAIVTLSGFLLQESVDRQEFISNNDTSNESMVDIDELLLPKKWNSIVRLQKKIIELEQNTETLVSQIKDLNTQVSELAQFKPTTSNGTSAHNVLKWIPRNLPSCLINVESSVTSVKLHPNLPIVFVATDHGKLYAFDLFNYTIPLASLQSHTKAITSMDVLFTNYTNSSKKNYLVIVTASKDLQIHVFKWVSEECKFQQIRSLLGHEHIVSAVKIWQKNNDVHIASCSRDQTVKIWDFHNGWSLKTFQPHSQWVRSIDVLGDYIISGSHDTTLRLTHWPSGNGLSVGTGHEFPIEKVKFIHFIEDSPEIRFRTPSTDRYKNWGMQYCVSASRDRTIKIWEIPLPTLMAHRAPIPNPTDSNFRCVLTLKGHLSWVRDISIRGQYLFSCADDKSVRCWDLNTGQCLHVWEKLHTGFVNCLDLDVDFDSNVTPRQMMVTGGLDCKSNVFMR
For B1, the stoichiometry N (Lis1 β-propellers per dynein) in series [2] was found to be 2. Moreover, the stoichiometry N (Lis1 β-propeller per dynein) in series [3] was 1. Also, in series [4], the binding result is reported as “binds”.
